Source: paper PMC10557681

Molecular target: recombinant WU2 (r)PspA possessing only αHD and PRD (Streptococcus pneumoniae serotype 3 strain WU2)
Test: SPR

## recombinant lactoferrin (LF) (from UniProt P02788 20-710) (natural protein)
  Kd: 3.89 nM
